# Laboratory results: patent US8058396B2, “Cystatin C as an antagonist of TGF-β and methods related thereto” (National Jewish Health, priority 2003, dated 2011)
# Assays:
# TGF-β signaling = assay: p3TP-luciferase reporter gene assay in 3T3-L1 cells; type: cell-based, murine; settings: expression in 3T3-L1 cells; TGF-β1 0-5 ng/ml; compared to control cells
# Description: Analysis of luciferase activity driven by the synthetic p3TP reporter ((26); generously provided by Dr. Joan Massague, Sloan Kettering) was performed as described previously (42). Briefly, control, CystC-, or Δ14CystC-expressing 3T3-L1 or HT1080 cells were cultured onto 24-well plates at a density of 45,000 cells/well and allowed to adhere overnight. The cells were transiently transfected the following morning by overnight exposure to LT1 liposomes (Mirus) containing 300 ng/well p3TP-luciferase and 100 ng/well of pCMV-β-gal. Afterward, the cells were washed twice with PBS and stimulated overnight in serum-free media with increasing concentrations of TGF-β1 as indicated. The following morning, luciferase and β-gal activities contained in detergent-solubilized cell extracts were determined.
# In some experiments, the effects of recombinant CystC and D14CystC on p3TP-luciferase activity 3T3-L1 cells was determined. […] All subsequent procedures were performed as described above.
# The present inventor's findings that TGF-β signaling was inhibited by CystC (FIGS. 1 and 2) independent of its actions on cathepsin B lead them to hypothesize CystC as a general antagonist of TGF-β signaling. To test this hypothesis, changes in p3TP-driven luciferase activity were monitored in control, CystC-, Δ14CystC-expressing cells before and after their stimulation with TGF-β. Briefly, GFP-, CystC-, or Δ14CystC-expressing 3T3-L1 cells were transiently transfected with p3TP-luciferase and pCMV-β-gal, and subsequently stimulated with increasing concentrations of TGF-β1 (0-5 ng/ml) as indicated in FIG. 3A. Afterward, luciferase and β-gal activities contained in detergent-solubilized cell extracts were measured. […] Data are the mean (±SE) luciferase activities of four independent experiments normalized to untreated GFP-expressing cells.
# The transfectants were then stimulated with TGF-β1 (5 ng/ml) in the absence or presence of recombinant (10 mg/ml) GST, GST-CystC, or GST-D14CystC as indicated in FIG. 3B. […]
# NRK kidney fibroblasts [1] = assay: NRK cell invasion through Matrigel matrices; type: cell-based, rat; settings: expression in NRK cells, 48 hours, p<0.05; for TGF-β-stimulated NRK cell invasion through synthetic basement membranes: TGF-β1 5 ng/ml
# Description: (§1) This hypothesis was tested by infecting NRK cells with bicistronic retrovirus encoding either CystC or Δ14CystC to determine their effects on NRK anchorage-independent growth stimulated by TGF-β. Briefly, rat NRK kidney fibroblasts were infected with control (i.e., pMSCV-IRES-GFP), CystC, or Δ14CystC retroviral supernatants, and the resulting infected cells were isolated by GFP fluorescence on a MoFlo cell sorter 48 hours later. Control, CystC-, and Δ14CystC-expressing NRK cells were cultured in soft-agar in the absence or presence of TGF-β1 (5 ng/ml) for 7 d, whereupon NRK colony formation was quantified by light microscopy. In addition, control, CystC-, and Δ14CystC-expressing NRK cells were allowed to invade through Matrigel matrices in the absence or presence of TGF-β1 (5 ng/ml) for 48 hours.
# NRK kidney fibroblasts [2] = assay: Soft agar assay, anchorage-independent growth of NRK cells; type: cell-based, rat; settings: retroviral-mediated expression in NRK cells; TGF-β1 5 ng/ml; 7 d
# Description: The growth of NRK cells in soft agar was performed according to the procedures described in (Moustakas et al., 1999). Briefly, duplicate cultures of control-, CystC-, or Δ14CystC-expressing NRK cells (10,000 cells/plate) were grown in 0.3% agar on a cushion of 0.6% agar in 35-mm plates. NRK cell growth in the absence or presence of TGF-β1 (5 ng/ml) was allowed to proceed for 7 d, whereupon the number of colonies formed was quantified under a light microscope.
# as §1
molecule,measurement,setting,value
"Δ14CystC: human CystC with deletion of positions 80 to 93 (conserved cysteine proteinase inhibitor motif), retrovirally expressed and secreted (protein, left off: small tags and cut ends) MAGPLRAPLLLLAILAVALAVSPAAGSSPGKPPRLVGGPMDASVEEEGVRRALDFAVGEYNKASNDMYHSRALQVVRARLGRTTCTKTQPNLDNCPFHDQPHLKRKAFCSFQIYAVPWQGTMTLSKSTCQDA",TGF-β-stimulated luciferase activity (p3TP),TGF-β signaling,significantly reduced
same,TGF-β-stimulated NRK cell invasion through synthetic basement membranes,NRK kidney fibroblasts [1],inhibited significantly
same,morphological transformation (soft agar colony formation) stimulated by TGF-β,NRK kidney fibroblasts [2],completely prevented
"CystC: full-length human Cystatin C (SEQ ID NO:2), C-terminally Myc- and (His)6-tagged, retrovirally expressed and secreted by the cells (protein, listed as Homo sapiens, C-terminal Myc and His6 tags) MAGPLRAPLLLLAILAVALAVSPAAGSSPGKPPRLVGGPMDASVEEEGVRRALDFAVGEYNKASNDMYHSRALQVVRARKQIVAGVNYFLDVELGRTTCTKTQPNLDNCPFHDQPHLKRKAFCSFQIYAVPWQGTMTLSKSTCQDA",TGF-β-stimulated luciferase activity (p3TP),TGF-β signaling,significantly reduced
same,tonic NRK cell invasion,NRK kidney fibroblasts [1],inhibited significantly
same,TGF-β-stimulated NRK cell invasion through synthetic basement membranes,NRK kidney fibroblasts [1],inhibited significantly
same,morphological transformation (soft agar colony formation) stimulated by TGF-β,NRK kidney fibroblasts [2],completely prevented
